Data: the Human Domainome abundance scans (Beltran et al. 2025)
± gives the uncertainty stated by the source.

B1: Cytoplasmic polyadenylation element-binding protein 2, residues 513 to 575; numbered along this chain, Q7Z5Q1 (parent)
chain: KRVEVKPYVLDDQMCDECQGARCGGKFAPFFCANVTCLQYYCEFCWANIHSRAGREFHKPLVK

Variants of: B1
Assay: abundance fitness (aPCA) (normalised: wild type 0, dead -1); higher = more abundant; growth selection in yeast, the domain comes from the species named
Settings: Homo sapiens

Variant	abundance fitness
N48I	-0.02 ± 0.047
N48L	0.014 ± 0.043
N48C	-0.033 ± 0.083
L61A	0.092 ± 0.044
L61H	-0.048 ± 0.11
K6G	-0.017 ± 0.033
K6P	-0.102 ± 0.046
H50P	-0.81 ± 0.042
H50Q	-0.727 ± 0.094
H50S	-0.723 ± 0.051
F57V	0.065 ± 0.048
C15D	-0.691 ± 0.17
C15V	-0.587 ± 0.055
C15I	-0.626 ± 0.14
V9I	-0.022 ± 0.042
V9G	-0.087 ± 0.037
E17N	-0.128 ± 0.17
E17C	-0.006 ± 0.08
D16W	-0.013 ± 0.047
D16L	-0.271 ± 0.038
D16P	-0.129 ± 0.053

Variant	abundance fitness
D16F	0.145 ± 0.055
E56R	-0.01 ± 0.037
E56P	-0.31 ± 0.054
D12L	-0.288 ± 0.047
D12Q	0.052 ± 0.071
D12M	-0.189 ± 0.059
H58W	-1.01 ± 0.08
H58Y	-0.822 ± 0.11
H58V	-0.704 ± 0.062
Q13F	-0.229 ± 0.073
Q13L	-0.291 ± 0.036
Q13Y	-0.217 ± 0.087
G24K	-0.068 ± 0.049
G24N	0.172 ± 0.094
G24C	-0.242 ± 0.06
G24A	-0.052 ± 0.051
P60G	-0.341 ± 0.049
P60L	-0.517 ± 0.048
G25N	-0.025 ± 0.085
G25M	-0.127 ± 0.061
G25A	-0.147 ± 0.049

Variant	abundance fitness
G25E	-0.195 ± 0.066
Q19V	-0.093 ± 0.042
V3L	-0.156 ± 0.043
V3R	-0.1 ± 0.04
T36V	-0.106 ± 0.053
T36W	-0.328 ± 0.055
T36S	-0.011 ± 0.041
A28M	-0.445 ± 0.094
A28E	-0.289 ± 0.053
V35Q	0.021 ± 0.053
D11R	-0.068 ± 0.05
R22W	-0.332 ± 0.078
R22H	0.077 ± 0.098
R22N	-0.032 ± 0.14
R22A	-0.126 ± 0.045
C23L	-0.285 ± 0.041
S51P	-0.118 ± 0.053
S51H	-0.054 ± 0.07
S51V	-0.025 ± 0.039
F31Y	0.033 ± 0.086
F31N	-0.608 ± 0.098

Variant	abundance fitness
F31R	-0.324 ± 0.039
F31E	-0.291 ± 0.079
F31L	-0.328 ± 0.047
F31H	-0.626 ± 0.16
C32W	-0.929 ± 0.13
C32P	-0.737 ± 0.089
C32S	-0.664 ± 0.06
C32H	-0.917 ± 0.15
C32G	-0.802 ± 0.08
I49N	-0.221 ± 0.058
I49L	-0.033 ± 0.04
I49C	-0.443 ± 0.12
I49G	-0.284 ± 0.072
I49P	-0.43 ± 0.055
V62S	-0.081 ± 0.34
Y41K	-0.625 ± 0.1
Y41G	-0.878 ± 0.072
Y41H	-0.704 ± 0.26
Y41I	-0.694 ± 0.14
Y41D	-0.729 ± 0.1
